Assay results taken from WO2021212049A2.

Target: recombinant SARS-CoV-2 S protein ectodomain (residues 14-1211), 2P, furin site mutated, foldon, 8XHis (SARS-CoV-2) (UniProt P0DTC2)
Experiment: ELISA on coated antigen, anti-human IgG-HRP

For mAb 2B04 (antibody), which minimum positive concentration is on record?
The minimum positive concentration was < 5 µg/mL.
